Experimental data published in PMC4690014, “Functional Analysis of Cotton Leaf Curl Kokhran Virus/Cotton Leaf Curl Multan Betasatellite RNA Silencing Suppressors”.

B1: 69 nt ssDNA (SalI-XbaI-HA-Tag oligo, by length) (ssDNA)
DNA: GCGTCGACGTCTTGCTCTAGAGATGTATCCATATGATGTTCCGGATTACGCGGAACGAGCTATACAAGG
B2: 24 nt ssRNA (ssRNA)
RNA: AGAGUGCCAUGCCCGAAGGUUAUU
B3: 21 nt ssDNA (ssDNA)
DNA: AGAGTGCCATGCCCGAAGGTT
B4: 21 nt ssRNA (ssRNA)
RNA: AGAGUGCCAUGCCCGAAGGUU

What was measured:
V2 (Trx-His fusion) = V2 (Trx-His fusion) (Cotton leaf curl Kokhran virus, UniProt Q6JIB8 1-118); assay: EMSA; details: protein: recombinant; tags: N-terminal Trx-His (pET32a); label: 5'-32P
TrAP (Trx-His fusion) = TrAP (Trx-His fusion) (Cotton leaf curl Kokhran virus, UniProt O72711 1-134); assay: EMSA; details: protein: recombinant; tags: N-terminal Trx-His (pET32a); label: 5'-32P

Binder	binding result (V2 (Trx-His fusion))	binding result (TrAP (Trx-His fusion))
B1	binds	binds
B2	–	binds
B3	–	binds
B4	–	binds
